Patent US20130225488A1 (CADILA HEALTHCARE, published 2013)
Where no end group is shown, it is not given here. [ ]: non-standard residue; d: D form. Ac3c = NC1(C(=O)O)CC1; Aib = CC(C)(N)C(=O)O

Legend:
Human glucagon receptor = Human glucagon receptor (human, UniProt P47871 26-477); experiment: cell-based or functional assay
Human GLP-1 receptor = Human GLP-1 receptor (human, UniProt P43220 24-463); experiment: cell-based or functional assay
Human GLP-1 receptor, sequence (P43220 24-463): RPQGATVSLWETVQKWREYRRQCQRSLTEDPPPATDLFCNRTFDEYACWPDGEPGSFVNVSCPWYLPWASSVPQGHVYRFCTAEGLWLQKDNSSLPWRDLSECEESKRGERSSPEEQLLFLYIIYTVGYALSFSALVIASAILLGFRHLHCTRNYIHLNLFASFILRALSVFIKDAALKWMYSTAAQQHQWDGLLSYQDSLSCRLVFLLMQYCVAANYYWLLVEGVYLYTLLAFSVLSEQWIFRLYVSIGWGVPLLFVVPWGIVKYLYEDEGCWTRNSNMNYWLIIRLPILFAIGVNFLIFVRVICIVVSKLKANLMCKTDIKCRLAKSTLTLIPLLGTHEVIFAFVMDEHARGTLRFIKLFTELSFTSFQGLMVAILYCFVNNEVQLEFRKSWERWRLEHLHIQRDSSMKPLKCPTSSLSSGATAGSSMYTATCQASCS

Row | cAMP production with saturated glucagon peptide; test compound 1 nM (Human glucagon receptor) | cAMP production with saturated glucagon peptide; test compound 10 nM (Human glucagon receptor) | cAMP production with saturated glucagon peptide; test compound 100 nM (Human glucagon receptor) | cAMP production with saturated glucagon peptide; test compound 10 µM (Human glucagon receptor) | cAMP production with saturated glucagon peptide; test compound '1 nM' (Human glucagon receptor) | cAMP release, % activity with respect to control; test compound 1 nM (Human GLP-1 receptor) | cAMP release, % activity with respect to control; test compound 10 nM (Human GLP-1 receptor) | cAMP release, % activity with respect to control; test compound 100 nM (Human GLP-1 receptor) | cAMP release, % activity with respect to control; test compound 1 µM (Human GLP-1 receptor) | cAMP release, % activity with respect to control; test compound 10 µM (Human GLP-1 receptor) | Binder
1 | 2 pmol/ml/µg prt | 0 pmol/ml/µg prt | 0 pmol/ml/µg prt | 0 pmol/ml/µg prt | 0 pmol/ml/µg prt | 78% | 99% | 99% | 99% | 99% | H[Ac3c]QGTFTSD[Bip(OMe)][Bip(2Me)] [Seq. ID. No. 17: H-(ACP)-QGTFTSD-Bip(OMe)-Bip(2Me)]
2 | 4 pmol/ml/µg prt | 2 pmol/ml/µg prt | 0 pmol/ml/µg prt | 0 pmol/ml/µg prt | 0 pmol/ml/µg prt | 69% | 98% | 99% | 99% | 99% | H[Aib]QGTFTSD[Bip(OMe)][Bip(2CF3)] [Seq. ID. No. 16: H-Aib-QGTFTSD-Bip(OMe)-Bip(2CF3)]
3 | 0 pmol/ml/µg prt | 0 pmol/ml/µg prt | 0 pmol/ml/µg prt | 0 pmol/ml/µg prt | 0 pmol/ml/µg prt | 86% | 99% | 99% | 99% | 99% | H[Ac3c]QGTFTSD[Bip(OMe)][Bip(Pyr)] [Seq. ID. No. 18: H-(ACP)-QGTFTSD-Bip(OMe)-Bip(Pyr)]
